The labels stand for the following.
B1: glmS ribozyme (parent)
chain: AUAAAAGCGCCAGAACUACAGAAAUGUAGUUGACGAGGAGGAGGUUUAUCGAAUUUUCGGCGGAUGCCUCCAAA

Holding throughout (conditions): with glucosamine-6-phosphate
Variants of B1 are the subject of series [1]. The series is described as follows: self-cleavage kobs at 160 uM GlcN6P; higher = faster cleavage; RNA array. The essentials:
(§1)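 Barcoded glmS ribozyme variants on sequenced MiSeq chips were transcribed in situ by E. coli RNA polymerase and tracked through a hybridised Cy3 probe at 37 °C. Glucosamine-6-phosphate (40 μM to 10 mM) in HEPES/KCl/Mg(OAc)2 buffer was flowed in, and tiles were imaged over ~14 h. Signals were normalised to baseline and to non-cleaving reference variants; per-tile medians were fit to one- or two-exponential decays to give kobs. kcat and KM came from weighted Michaelis–Menten fits across concentrations.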

The variants in series [2] derive from B1. The series is described as follows: self-cleavage kobs at 640 uM GlcN6P; higher = faster cleavage; RNA array. The method, boiled down: as §1
Variants of B1 are the subject of series [3]. The series is described as follows: self-cleavage kobs at 2500 uM GlcN6P; higher = faster cleavage; RNA array. The essentials: as §1
Variants of B1 are the subject of series [4]. The series can be described thus: self-cleavage kobs at 10000 uM GlcN6P; higher = faster cleavage; RNA array. The essentials:
as §1

± gives the standard error. Variants at the floor of the assay were thinned out.

26 variants from the supplement of paper PMC7125110 can be followed below.

As to G9A A36C G41U A64G C70U, the “self-cleavage kobs at 160 uM GlcN6P” value in the series with glucosamine-6-phosphate [1] is less than 1e-05 s⁻¹. Further, the “self-cleavage kobs at 640 uM GlcN6P” value with glucosamine-6-phosphate [2] is less than 1e-05 s⁻¹. Besides, the “self-cleavage kobs at 2500 uM GlcN6P” value in the series with glucosamine-6-phosphate [3] is less than 1e-05 s⁻¹. Further, the “self-cleavage kobs at 10000 uM GlcN6P” value with glucosamine-6-phosphate [4] was less than 1e-05 s⁻¹.
Turning to A36G G41C A53U, in the series with glucosamine-6-phosphate [1], the “self-cleavage kobs at 160 uM GlcN6P” value is less than 1e-05 s⁻¹. Moreover, the “self-cleavage kobs at 640 uM GlcN6P” value in the series with glucosamine-6-phosphate [2] is less than 1e-05 s⁻¹.
Take A15C C16A C67U: the “self-cleavage kobs at 160 uM GlcN6P” value with glucosamine-6-phosphate [1] amounted to 4.39e-05 ± 2.1e-05 s⁻¹. The “self-cleavage kobs at 640 uM GlcN6P” value in the series with glucosamine-6-phosphate [2] was determined as 0.000115 ± 2.9e-05 s⁻¹. Moreover, the “self-cleavage kobs at 2500 uM GlcN6P” value with glucosamine-6-phosphate [3] came to 0.000111 ± 4e-05 s⁻¹.
In the same order, the values of G13C C34A G35U are less than 1e-05 s⁻¹, less than 1e-05 s⁻¹ and less than 1e-05 s⁻¹.
For G35A A36U U55A, in the series with glucosamine-6-phosphate [1], the “self-cleavage kobs at 160 uM GlcN6P” value was less than 1e-05 s⁻¹.
Consider A12U G13U A48U G51C U54G C71U, for which, in the series with glucosamine-6-phosphate [1], the “self-cleavage kobs at 160 uM GlcN6P” value is less than 1e-05 s⁻¹. Moreover, in the series with glucosamine-6-phosphate [2], the “self-cleavage kobs at 640 uM GlcN6P” value is less than 1e-05 s⁻¹. Moreover, the “self-cleavage kobs at 2500 uM GlcN6P” value with glucosamine-6-phosphate [3] was less than 1e-05 s⁻¹.
With G29A G60A, the “self-cleavage kobs at 160 uM GlcN6P” value with glucosamine-6-phosphate [1] was less than 1e-05 s⁻¹. For the same variant, the “self-cleavage kobs at 640 uM GlcN6P” value with glucosamine-6-phosphate [2] is less than 1e-05 s⁻¹.
With G13A G43A, the “self-cleavage kobs at 160 uM GlcN6P” value in the series with glucosamine-6-phosphate [1] is less than 1e-05 s⁻¹. Besides, the “self-cleavage kobs at 640 uM GlcN6P” value with glucosamine-6-phosphate [2] is less than 1e-05 s⁻¹. Further, the “self-cleavage kobs at 10000 uM GlcN6P” value with glucosamine-6-phosphate [4] is less than 1e-05 s⁻¹.
In the case of C8G U30A G40U, in the series with glucosamine-6-phosphate [1], the “self-cleavage kobs at 160 uM GlcN6P” value was less than 1e-05 s⁻¹. The “self-cleavage kobs at 2500 uM GlcN6P” value with glucosamine-6-phosphate [3] was less than 1e-05 s⁻¹.
As to C16U G32U C70A, the “self-cleavage kobs at 160 uM GlcN6P” value with glucosamine-6-phosphate [1] was less than 1e-05 s⁻¹.
Consider G35C U69G, for which the “self-cleavage kobs at 160 uM GlcN6P” value with glucosamine-6-phosphate [1] was less than 1e-05 s⁻¹. For the same variant, the “self-cleavage kobs at 2500 uM GlcN6P” value with glucosamine-6-phosphate [3] is less than 1e-05 s⁻¹.
For the variant G59U G60U G62A, in the series with glucosamine-6-phosphate [1], the “self-cleavage kobs at 160 uM GlcN6P” value is less than 1e-05 s⁻¹. Further, in the series with glucosamine-6-phosphate [3], the “self-cleavage kobs at 2500 uM GlcN6P” value was less than 1e-05 s⁻¹.
As to A12G U49A G63U, in the series with glucosamine-6-phosphate [1], the “self-cleavage kobs at 160 uM GlcN6P” value is less than 1e-05 s⁻¹. Besides, the “self-cleavage kobs at 640 uM GlcN6P” value in the series with glucosamine-6-phosphate [2] was less than 1e-05 s⁻¹.
On to A53U G59U C61U G66U, for which the “self-cleavage kobs at 160 uM GlcN6P” value with glucosamine-6-phosphate [1] is less than 1e-05 s⁻¹. For the same variant, in the series with glucosamine-6-phosphate [3], the “self-cleavage kobs at 2500 uM GlcN6P” value was less than 1e-05 s⁻¹.
On to U56C U57G C58A, for which the “self-cleavage kobs at 160 uM GlcN6P” value in the series with glucosamine-6-phosphate [1] worked out at 0.00183 ± 0.0009 s⁻¹.
As to U31C G62U G66C, in the series with glucosamine-6-phosphate [1], the “self-cleavage kobs at 160 uM GlcN6P” value is less than 1e-05 s⁻¹.
C16U G37A G40C G43A: the “self-cleavage kobs at 160 uM GlcN6P” value with glucosamine-6-phosphate [1] was less than 1e-05 s⁻¹. Further, the “self-cleavage kobs at 640 uM GlcN6P” value with glucosamine-6-phosphate [2] is less than 1e-05 s⁻¹. The “self-cleavage kobs at 2500 uM GlcN6P” value with glucosamine-6-phosphate [3] was less than 1e-05 s⁻¹. For the same variant, the “self-cleavage kobs at 10000 uM GlcN6P” value with glucosamine-6-phosphate [4] was less than 1e-05 s⁻¹.
Take C16G G43A: the “self-cleavage kobs at 160 uM GlcN6P” value with glucosamine-6-phosphate [1] is less than 1e-05 s⁻¹. Besides, the “self-cleavage kobs at 640 uM GlcN6P” value with glucosamine-6-phosphate [2] was less than 1e-05 s⁻¹.
In the case of C11G A33C G35C G62A, the “self-cleavage kobs at 160 uM GlcN6P” value with glucosamine-6-phosphate [1] is less than 1e-05 s⁻¹. Also, in the series with glucosamine-6-phosphate [2], the “self-cleavage kobs at 640 uM GlcN6P” value was less than 1e-05 s⁻¹.
Turning to G35C G62U, the “self-cleavage kobs at 160 uM GlcN6P” value with glucosamine-6-phosphate [1] is less than 1e-05 s⁻¹. In addition, in the series with glucosamine-6-phosphate [2], the “self-cleavage kobs at 640 uM GlcN6P” value is less than 1e-05 s⁻¹. Also, in the series with glucosamine-6-phosphate [3], the “self-cleavage kobs at 2500 uM GlcN6P” value was less than 1e-05 s⁻¹. In addition, in the series with glucosamine-6-phosphate [4], the “self-cleavage kobs at 10000 uM GlcN6P” value was less than 1e-05 s⁻¹.
With C8A A12U C67U, the “self-cleavage kobs at 160 uM GlcN6P” value in the series with glucosamine-6-phosphate [1] was less than 1e-05 s⁻¹. Besides, the “self-cleavage kobs at 640 uM GlcN6P” value with glucosamine-6-phosphate [2] is less than 1e-05 s⁻¹. The “self-cleavage kobs at 2500 uM GlcN6P” value with glucosamine-6-phosphate [3] is less than 1e-05 s⁻¹.
Regarding U30A A48C C67G, in the series with glucosamine-6-phosphate [1], the “self-cleavage kobs at 160 uM GlcN6P” value was less than 1e-05 s⁻¹.
In the case of G35C G40C A52C, in the series with glucosamine-6-phosphate [1], the “self-cleavage kobs at 160 uM GlcN6P” value is less than 1e-05 s⁻¹. Moreover, in the series with glucosamine-6-phosphate [2], the “self-cleavage kobs at 640 uM GlcN6P” value was less than 1e-05 s⁻¹. For the same variant, in the series with glucosamine-6-phosphate [3], the “self-cleavage kobs at 2500 uM GlcN6P” value was less than 1e-05 s⁻¹.
Regarding U30G G41C G60A, in the series with glucosamine-6-phosphate [1], the “self-cleavage kobs at 160 uM GlcN6P” value is less than 1e-05 s⁻¹. Further, the “self-cleavage kobs at 2500 uM GlcN6P” value with glucosamine-6-phosphate [3] was less than 1e-05 s⁻¹.
Turning to C10G C11U C16A A33U C34U C50G C70U, the “self-cleavage kobs at 160 uM GlcN6P” value with glucosamine-6-phosphate [1] amounted to 4.84e-05 ± 2.3e-05 s⁻¹. In the series with glucosamine-6-phosphate [2], the “self-cleavage kobs at 640 uM GlcN6P” value is 4.89e-05 ± 1.6e-05 s⁻¹. The “self-cleavage kobs at 2500 uM GlcN6P” value with glucosamine-6-phosphate [3] was 6.14e-05 ± 2.5e-05 s⁻¹.
With G9U G40A, in the series with glucosamine-6-phosphate [1], the “self-cleavage kobs at 160 uM GlcN6P” value is less than 1e-05 s⁻¹. Further, the “self-cleavage kobs at 640 uM GlcN6P” value with glucosamine-6-phosphate [2] was less than 1e-05 s⁻¹. Moreover, the “self-cleavage kobs at 2500 uM GlcN6P” value in the series with glucosamine-6-phosphate [3] is less than 1e-05 s⁻¹. In the series with glucosamine-6-phosphate [4], the “self-cleavage kobs at 10000 uM GlcN6P” value is less than 1e-05 s⁻¹.
